The test system of data set [1] is C[C@@H]1O[C@@H](Oc2ccc([N+](=O)[O-])cc2Cl)[C@@H](O)[C@H](O)[C@@H]1O. Put plainly: purified protein. To be noted: pH 6.0; 37.0 °C.
For a further data set, the target named is T1, BaGH29^26A (Bifidobacterium asteroides, UniProt A0A0F4KU40).
T1 construct: gene JF69_08700
In words: X-ray crystallography. Format: binding. The settings on record: co-crystallised with 5 mM 2'FL; active site.

Substrate in data set [2]: C[C@@H]1O[C@@H](Oc2ccc([N+](=O)[O-])cc2Cl)[C@@H](O)[C@H](O)[C@@H]1O
Put plainly: purified protein. To be noted: 50 mM citrate pH 6, 37 °C. Format: biochemical, Niastella yeongjuensis.

Substrate in data set [3]: C[C@@H]1O[C@@H](Oc2ccc([N+](=O)[O-])cc2Cl)[C@@H](O)[C@H](O)[C@@H]1O
Put plainly: purified protein. Format: biochemical, Bifidobacterium asteroides. The settings on record: 50 mM citrate pH 6, 37 °C.

Substrate in data set [4]: C[C@@H]1O[C@@H](Oc2ccc([N+](=O)[O-])cc2Cl)[C@@H](O)[C@H](O)[C@@H]1O
Put plainly: purified protein. The settings on record: pH 6.0; 37.0 °C. The source holds these as a separate data set.

Substrate in data set [5]: C[C@@H]1O[C@@H](Oc2ccc([N+](=O)[O-])cc2Cl)[C@@H](O)[C@H](O)[C@@H]1O
In words: purified protein. The settings on record: 50 mM citrate pH 6, 37 °C. Format: biochemical, Sphaerochaeta globosa.

Substrate in data set [6]: C[C@@H]1O[C@@H](Oc2ccc([N+](=O)[O-])cc2Cl)[C@@H](O)[C@H](O)[C@@H]1O
Put plainly: purified protein. Format: biochemical, Porphyromonas gingivalis. To be noted: 50 mM citrate pH 6, 37 °C.

Substrate in data set [7]: C[C@@H]1O[C@@H](Oc2ccc([N+](=O)[O-])cc2Cl)[C@@H](O)[C@H](O)[C@@H]1O
In words: purified protein. Format: biochemical, Sphingopyxis terrae. The settings on record: 50 mM citrate pH 6, 37 °C.

Substrate in data set [8]: C[C@@H]1O[C@@H](Oc2ccc([N+](=O)[O-])cc2Cl)[C@@H](O)[C@H](O)[C@@H]1O
In words: purified protein. Format: biochemical, Streptococcus mitis. To be noted: 50 mM citrate pH 6, 37 °C.

Substrate in data set [9]: C[C@@H]1O[C@@H](Oc2ccc([N+](=O)[O-])cc2Cl)[C@@H](O)[C@H](O)[C@@H]1O
Put plainly: purified protein. Format: biochemical, Tannerella forsythia. The settings on record: 50 mM citrate pH 6, 37 °C.

As to LaGH29^3A (Lysobacter antibioticus), the Michaelis constant (Km) in data set [1] was found to be 208.10 ± 33.240 µM.
Consider RsGH29^3A (Rhodopirellula sp. SWK7), for which the Km in [1] stood at 668.00 ± 69.040 µM.
On the same count and under the same terms, under “FbGH29^26A (Firmicutes bacterium CAG:345)” stands 188.10 ± 32.870 µM; under BsGH29^44B (Bacteroides sp. SM23_62), 299.60 ± 25.340 µM.
Turning to `C[C@@H]1O[C@@H](O)[C@@H](O)[C@H](O)[C@@H]1O` [Fuc], the X-ray crystallography entry on BaGH29^26A was “resulting in a complex with Fuc bound in the active site”.

B1: NyGH29^4A (Niastella yeongjuensis) (protein)
chain: QTYSPNWESLDARPAPQWFKDAKFGIFIHWGVYSVPAWAPVGKDYAVYSKYSEWYWNRLVTDSSKVGKAFRAYHNSTYGPNFKYQDFAPLFKAELFNPEQWADVFKNAGAQYVVLTSKHHDGFALWPSAEAWNWNAADVGPHKDLAGELTNAVKEKGLHMGFYYSLYEWFNPLYKSDIDKYVSEHMMPQLKDLVNRYKPDIIWPDGEWEHPSETWKSTQFLAWLYNESPVKNTVVVNDRWGKETRSKHGGYYTTEYDIVHNEDASKKQFEHPWEECRGIGGSFGYNRNETLGDYETSDAVIHMLIQKVARGGNLLLDIGPAADGTIPVIMQQRLADMGAWLKTNGEAIFGTTATKQPSINGAWFTQKNMDLYVILTAKMDKPLTFDLATAPGKATLLGVNKKVTVSYRSGKCTINPLELYPNLPAGGYAWVIKLEGAAGK
On to B1, for which, in the data set “purified protein [2]”, the Michaelis constant (Km) was found to be 279.80 ± 10.820 µM and the kcat stood at 0.00383 s⁻¹.

B2: BaGH29^26A (Bifidobacterium asteroides) (protein)
chain: MSDTVEWFKQAKYGMMIHWGLYSLLGGEYQGKSSSNYAEWVQSKLQIPNKEYERLTQAFNPIYFDADAIIDLAKRCGMQYLVVTTKHHDGFAMYRSLVDPYNVYDATPFHRDVIGELSLACRKAGLRFGLYYSQDLDWHEPDGGGYLSNDIETAGTTWDNSWDFTGEKNYDRAFKHKIMPQIEEIMSNYGEISVAWFDVPMTLSDEQSQTIYDTVKRLQPDCLINSRLGNGRYDYVSLGDNEIPEDSDASDKATSDGNVDYNSIEGFKPSKLGLYETAGTINDSWGFAYHDQNWKSPQTIHDYKAHLNKYGINYLLNVGLDGLGRVPMAAEQALLGARALEA
For the molecule B2, in the data set “purified protein [3]”, the Km is 222.00 ± 20.100 µM and the kcat was determined as 12.108 s⁻¹.

B3: RiGH29^2A (Roseburia intestinalis) (protein)
chain: MSEQQKEQQLLETVDRIIAEGPYQPAWSSLMQTKTPDWFKQKRFGIFIHWGVYSVPANSNEWYPRNMYIEGMPAYEHHIKTYGSQKDFGYKDFIPMFHAEKFDPAEWVRLFKEAGAGYVFPVAEHHDGFQMYKSELSHWNSAEMGPKRDVLGELKAEIEKQGLTFCTSSHRAEHWFFLGHGKEFDSDIKEPLQKGDLYWPSMPEPDAEDLYGEPYPTEEFLNDWLARTAEIILNYKPSLLYFDWWVQHQAFKPYLKKLAAFYYNCGVKWGKDVKICYKHDAMMFGSGIVEVERGGFAEAKPYDWQTDTAVARNSWCYTDTLDYKSSNEIICTLVDVVSKNGNLLLNIGPKADGTIPDGDRAILEDLAKWMKVNSEAVIGANVWRKSMEGPTAAAEGQFQDQKELKFTNKDYRFTINHGNIYAIALQCPKDGVFCIRSLADSSDQNVPEFHGIIESVDILGYDGRLQWSVDGEGLHVTAPGIDSEFPVVVRVRPE
With B3, the Michaelis constant (Km) in “purified protein [4]” was determined as 302.30 ± 7.0500 µM.

B4: SgGH29^9A (Sphaerochaeta globosa str. Buddy) (protein)
chain: MKHEAVQQWLDLQFGLFIHFGLYSLPGGVWKGERITRGYSEQILSHGYLPQADYEALTEQFSLPEFNPKHIVTTAKQAGMRYLVITTKHHDGFCLFDTNTTDYKSTNAACKRDIVKDLSDECKKQGLAFGIYFSWIDWHFSEAAAISSHNSDPIPSSHQRLNIAQLTELLSNYGPMCELWMDMGAPTAEQSQEVYDLVQSLQPQCMVNGRIWNDKQDFLTMGDNQLPAVPLNCPWQTPASIYKETWGYRSWQVRGDRDEKIQELSDTARKVVQEGGNYLLNIGLMGTGAIQSFEQEVLEGIGTVLAKNPLKREQNKRILPKIVPGQLCAEPLVAYRYTGTEYYSYRPIPTTLCWALQLNEDTSICIGWESDQGLAREQKLCLEIAGKQYYSSLQKGRTSDTFITALKLKKGKHEICLHTIGDELKRPELVDTTLRLVLRKEGK
As for B4, in “purified protein [5]”, the Michaelis constant (Km) came out at 495.20 ± 171.80 µM and the turnover number (kcat) amounted to 2.4117 s⁻¹.

B5: PgGH29^1B (Porphyromonas gingivalis ATCC 33277) (protein)
chain: GQGQEVYYPGSVVFPADATLEQKVEMAAKVVPTLQQLAWQQMELTAFLHFGINTFTDSEWGDGKEDPALFNPVELDARQWVRILHEAGFRMVILTAKHHDGFCLWPTATTRHSVASSPWREGKGDVVKEVRAACEEYGMKFGIYLSPWDRNAECYGDSHRYNRFFVSQLTELLTHYGEVHEVWFDGANGEGPNGKRQEYDWETFYDTIRRLQPQAVMAIMGDDVRWVGNERGLGRTTEWSATVLTPGIYSRSKTERNRLGIRENSPDLGSREVLKEAGEIFWYPSEVDVSIRPGWFYHAAEDKKVKSLDKLVDIYFQSVGYNSVLLLNVPPDRRGLIHEADALRLKEWADYLGRAFAHDRVVDSARYAVVQEHAVEEYALESKTHINILMLQEDITKGQRTEAFTVEAWVDGAWQEIGRGTTIGYKRLLRIPAVETDRIRVRIEQCRLPVNLCRVAVYYAEPPEQVVADESWNDIPRADWKLLSDDPLTIDLGREVMLRAFTYAPYKAEAKPTTAVRYRLAVSEDGRQWREIPTMGEFANVINNPLPQTVDMNQIVRTRFIRLDATAASGDKAVITMQEIGVTVE
As to B5, in “purified protein [6]”, the Km came to 302.10 ± 9.6900 µM and the kcat was 1.8767 s⁻¹.

B6: StGH29^nc (Sphingopyxis terrae subsp. ummariensis) (protein)
chain: AATVTGAGLGPQPRFPITGLPVLNPILRLYPEKSVFRSGDIRFGVGELEMMIPFLGTGEIVWSVNVSEAKRYRIALCYSTVNETQPVTISVNGQDVPFAAPRTKGYFIPHPEGPVDDPGDPDTDGFWRMREYYLFERKPVAGEVDLVRGVNVVKLKVTAPKGKEAFRLRSIELTPVDKVAEIEADLTRQRANRANTDWFANAGYGMWFHFLDLTTPRVGPRKSYEDAVNALDVPKLAKMVDDCGARYLIWTVNHGNPTCPAPIKAWERLHPGMTTKRDLIMELADELAKYNIELMLYQNCPGTGGLIQQHQRAIDTPTFSEVEYANQLIDVFNEFGARYGTKVKGWWLDSWFQTMESYPNLPNEAINRAIKSGNRNCMSSFNGWAFPNEVECQDYWCGEITDLPAKPFGARYLKDGPAAGLQAHSAIKLDAPWFHVTENMEMEPPLYSARELADYIAICQRDQAPVTLGVGIYQDGTIGPKSYAVLTELRGLIRKGKARR
For the molecule B6, in the data set “purified protein [7]”, the Michaelis-Menten constant (Km) stood at 290.60 ± 19.810 µM and the catalytic constant (kcat) is 0.00733 s⁻¹.

B7: SmGH29^1B (Streptococcus mitis B6) (protein)
chain: MVREIKPHGPLPSQAQLAYLEDELAAFIHFGPNTFYDQEWGTGQEDSERFNPTRLDAREWVRVLKEMGFKKLILVVKHHDGFVLYPTAYTDYSVKASPWRNGEGDLLLEVSQAATEFDMDMGVYLSPWDAHSPLYHVDQEADYNAYYLAQLKEILSNPAYGNGGKFAEVWMDGARGEGAQKVNYEFEKWFETIRDLQGDCLIFSTEGTSIRWIGNERGYAGDPLWQKVNPDKLGTEAALDYLQHGDSSGTIFSIGEADVSIRPGWFYHEEQDPKSLEELVEIYFHSVGRGTPLLLNIPPNQDGLFDEKDIKRLYEFATYRNELYKEDLALGAKVYGPALSADFACHHLTDGLESSSWASDADLPIQLELDLGFPKTFDVIELREDLKLGQRIAAFHVQVEVDGVWQEFGTGFTVGHKRLLRGPLVEAQKVRVMITESQDLPVLTKISLYKTPSLSQKEVVQGLAFAEKSLSVAKGETLHFRIERSESNTPLEAKISIQPGTGVHGIAYQDEIQVLQFQAGESKKDLCLPTLHFAADKTLDFYLNLTVDGQLVDQLQVQVS
Regarding B7, in “purified protein [8]”, the Km was determined as 289.50 ± 14.610 µM and the turnover number (kcat) is 0.865 s⁻¹.

B8: TfFuc1^8A (Tannerella forsythia 92A2) (protein)
chain: PAQPGYTPSADNLKARETFQDDKFGIFIHWGIYSMLADGEWVMHNKNLNWEEYAKLASGFYPAKFNAAEWVAAIKASGAKYITITSRHHDGFSMYATQQSDYNIVDATPFKRDVIHELADECRKQGIRLHLYYSHLDWRRDDYYPLGRTGKGTGRTTQGKWEDYCAFMNNQLTELLTNYGLIGAIWFDGMWDKDIYPDGMTAKTWNLNEQYTLIHRLQPACLIGNNHHITPFAGEDIQIFERDLPGENKAGLSGQDISRLPLETCETMNGMWGYKITDQDYKSTKILIQYLVKAAGKNANLLMNVGPQPNGELPTVAVQRLREMGEWMKIYAPTIQGTRGGVVTPRDWGVTTQKGKTLYVHVLNLDDKALFLPYAGNKLKSAVEYQSRKSVRFIQDRDGILLKFTDKPHSPDYVLELTFANELPLN
On to B8, for which, in the data set “purified protein [9]”, the Km was 153.70 ± 21.810 µM and the kcat was found to be 8.9117 s⁻¹.

The term Km denotes the substrate concentration at which the rate is half of its maximum. Broadly, the kcat is the number of substrate molecules converted per active site and unit of time at saturation.

(Values after article PMC11189522, “Exploring the sequence-function space of microbial fucosidases” (Communications Chemistry, 2024).)
